Measured values published in US20080311122A1, “Antagonists of Hmgb1 and/or Rage and Methods of Use Thereof” (Medimmune, LLC, priority 2005, published 2008).
“Also recorded” adds a separate entry of the source.

B1: S16: human anti-HMG1 antibody, ATCC PTA-6259; VL/VH aa SEQ ID NO: 13/15 (antibody, listed as Homo sapiens, V domains shown)
VH: EVQLLESGGGLVQPGGSLRLSCAASGFTFSWYSMLWVRQAPGKGLEWVSYISPSGGFTNYADSVKGRFTISRDNSKNTLYLQMNSLRAEDTAVYYCARWDYNSGWYYDHWGQGTLVTVSS
VL: AQDIQMTQSPDTLSLSPGERATLSCRASQSVNSRNLAWYQQKPGQAPRLLIYGASTRATGIPDRFSGSVSGTEFTLTISSLQPDDFATYYCQQYNSYFTFGQGTKLEIK
B2: E11: human anti-HMG1 antibody, recognizes HMG1 A-Box; VL/VH aa SEQ ID NO: 24/26 (antibody, listed as Homo sapiens, V domains shown)
VH: EVQLLESGGGLVQPGGSLRLSCAASGFTFSRYQMNWVRQAPGKGLEWVSSISPSGGHTHYADSVKGRFTISRDNSKNTLYLQMNSLRAEDTAVYYCAKDGRQGKISTVDHWGQGTLVTVSS
VL: AQDIQMTQSPGTLSLSPGERATLSCRASQSVRSNFLAWYQQKPGQAPRLLIYGASRRASGIPDRFSGSGFGADFTLSISRLEPEDFAVYYCQQYGSSPNTFGQGSRVEIK

Columns and labels:
[1] = tested on: AIA rat model of arthritis; assay: Adjuvant-induced arthritis (AIA) rat model; type: in vivo; conditions: percent protection, isotype control subtracted
Description: Induction of Adjuvant Induced Arthritis […]: Six-eight week old female DA rats (Harlen) were used. On day 0, isoflurane anesthetized animals were given an intradermal injection, at base of tail, 0.75 mg of mycobacterium butyricum (Difco #0640-33-7) mixed in 100 μl incomplete Freund's adjuvant (Difco, Detroit, Mich.).
The human anti-HMG1 antibody G4, the A-box-Fc fusion and the huIgG isotype control were administered at 10 mg/kg, every 3 days, day 0-15. Methotrexate was administered at 0.8 mg/kg, every 6 days, day 0-15 and Renbrel was administered at either 2.5 mg/kg every two days, day 0-15 for treatment group 5 or at 4 mg/kg, every 3 days, day 0-15 for treatment group 6. […]
Monitoring Disease: Beginning at day 6 all animals were observed daily to assess the status of the disease in their paws, which was done by assigning a qualitative clinical score to each of the paws. Every day, each animal has its 4 paws scored according to its state of clinical disease. […] In addition, each mouse is weighed, to follow body weight changes, at the same time the paws are scored.
The joints of the 4 lateral digits of each paw are graded as involved or not involved, i.e., 1 or 0. For example, a maximally involved left rear paw would be scored: ankles=4, midfoot=4, MTP=4, PIP=4, DIP=4 (20 units). […]

[2] = tested on: LPS+HMG1 induced TNF-a release (TLR4 signaling); assay: Inhibition of HMG1 mediated enhancement of TLR4 signaling, LPS+HMG1 TNF-a release; type: cell-based, mouse
LPS-induced ALI = assay: LPS induced acute lung injury (ALI) mouse model; type: in vivo; conditions: percent protection, isotype control subtracted
Description: Induction of LPS-induced ALI: LPS (E. coli strain 01111:B4. Sigma, St. Louis, Mo.) was administered intranasally to isoflurane (Baxter Pharmaceuticals, Deerfield, Ill.) anesthetized adult BALB/c mice on day 1 at a dose of 5-10 ug per mouse in 50-100 μl. For determination of HMG1 levels animals were euthanized by CO2 asphyxiation at 4, 8, 24, 32 and 48 hours post LPS administration, and BronchoAlvcolar Lavarge (BAL) and other samples collected for protein analysis and histopathology. For treatment protocols 24 hours post LPS dosing, anti-HMGB1 antibodies, HMG1 A-box Fc fusion or controls were administered intraperitoneally (i.p.) at a dose of 10 mg/kg in 100 ul volumes. On day 3 (48 h post LPS dosing), animals were euthanized by CO2 asphyxiation and samples (BALs, blood, and lungs) collected for analysis.
BAL Sample Collection: lungs were flushed three times with ˜0.8 ml Phosphate buffered saline (PBS, pH 7.2, GIBCO, Rockville, Md.) using a syringe with a catheter tubing. BAL samples collected were centrifuged at 1,200 rpm for 10 min at 4 C, supernatant collected and stored at −80 C for protein (e.g. HMGB1) quantitation, and cells in pellet were resuspended and transferred to cytoslides, fixed, GIEMSA stained, and BAL cellularity determined visually with the aid of a microscope.

| Molecule | in vivo AIA [1] [%] | inhibition of TNF-a release induced by LPS+HMG1 [2] | inhibition of signaling by LPS alone [2] | in vivo ALI (LPS-induced ALI) [%] |
| --- | --- | --- | --- | --- |
| B1 | 0 |  |  |  |
| B2 |  | inhibits the release of TNF-a induced by LPS+HMG1; also recorded: could be blocked; also recorded: inhibit the release of TNFa induced by LPS+HMG1 | inhibit signaling by LPS alone | 37 |
